Measurements reported in publication PMC5606850, “Acidic C-terminal domains autoregulate the RNA chaperone Hfq” (eLife, 2017).
*: point of attachment. FITC = O=C1OC2(c3ccc(O)cc3Oc3cc(O)ccc32)c2ccc(NC(=S)*)cc21; Ahx = NCCCCCC(=O)O

Legend:
Hfq102 (wild-type Hfq) [1] = target: T1, Hfq102 (wild-type Hfq) (Escherichia coli, UniProt P0A6X3 1-102); assay: competition; vs pUC19 EMSA; strong; Anisotropy: 10 mM Tris-HCl pH 7.5, 50 mM NaCl, 50 mM KCl, 30 C; CTD-FITC competition: 50 mM Tris-HCl pH 7.5, 30 C; pUC19 EMSA: 40 mM Tris-HCl pH 7.5, 0.14 mM EDTA, 35 mM NH4Cl, 3.7% glycerol, 25 C (competition legend 30 C); settings: protein: recombinant; tags: untagged; chain copies: 6
Hfq102 (wild-type Hfq) [2] = target: T1, Hfq102 (wild-type Hfq); assay: fluorescence anisotropy; Hill 1.4; asterisked value, footnote not in material (possibly earlier work); Anisotropy: 10 mM Tris-HCl pH 7.5, 50 mM NaCl, 50 mM KCl, 30 C; CTD-FITC competition: 50 mM Tris-HCl pH 7.5, 30 C; pUC19 EMSA: 40 mM Tris-HCl pH 7.5, 0.14 mM EDTA, 35 mM NH4Cl, 3.7% glycerol, 25 C (competition legend 30 C); settings: protein: recombinant; tags: untagged; chain copies: 6; label: Cy3; hairpin with 5' overhang
[3] = target: T2, Hfq65 (Hfq core, CTD deleted) (Escherichia coli, UniProt P0A6X3 1-65); assay: competition; displaces CTD-FITC peptide; stronger than length trend; Anisotropy: 10 mM Tris-HCl pH 7.5, 50 mM NaCl, 50 mM KCl, 30 C; CTD-FITC competition: 50 mM Tris-HCl pH 7.5, 30 C; pUC19 EMSA: 40 mM Tris-HCl pH 7.5, 0.14 mM EDTA, 35 mM NH4Cl, 3.7% glycerol, 25 C (competition legend 30 C); settings: protein: recombinant; tags: untagged; chain copies: 6; minRCRB-like hairpin at 5' end
[4] = system: RNA molecular beacon and Target RNA; settings: ref Zheng et al., 2016; cited from earlier work
[5] = target: T2, Hfq65 (Hfq core, CTD deleted); assay: EMSA; 33.3 nM hexamer, 10 C; most stable ternary complex; Anisotropy: 10 mM Tris-HCl pH 7.5, 50 mM NaCl, 50 mM KCl, 30 C; CTD-FITC competition: 50 mM Tris-HCl pH 7.5, 30 C; pUC19 EMSA: 40 mM Tris-HCl pH 7.5, 0.14 mM EDTA, 35 mM NH4Cl, 3.7% glycerol, 25 C (competition legend 30 C); settings: protein: recombinant; tags: untagged; chain copies: 6; label: 32P on ChiX; partial RNA-RNA duplex
Hfq102 (wild-type Hfq) [6] = target: T1, Hfq102 (wild-type Hfq); assay: EMSA; 33.3 nM hexamer, 10 C; less ternary complex than Hfq65; Anisotropy: 10 mM Tris-HCl pH 7.5, 50 mM NaCl, 50 mM KCl, 30 C; CTD-FITC competition: 50 mM Tris-HCl pH 7.5, 30 C; pUC19 EMSA: 40 mM Tris-HCl pH 7.5, 0.14 mM EDTA, 35 mM NH4Cl, 3.7% glycerol, 25 C (competition legend 30 C); settings: protein: recombinant; tags: untagged; chain copies: 6; label: 32P on ChiX; partial RNA-RNA duplex
Hfq102 (wild-type Hfq) [7] = target: T1, Hfq102 (wild-type Hfq); assay: competition; vs pUC19 EMSA; good; Anisotropy: 10 mM Tris-HCl pH 7.5, 50 mM NaCl, 50 mM KCl, 30 C; CTD-FITC competition: 50 mM Tris-HCl pH 7.5, 30 C; pUC19 EMSA: 40 mM Tris-HCl pH 7.5, 0.14 mM EDTA, 35 mM NH4Cl, 3.7% glycerol, 25 C (competition legend 30 C); settings: protein: recombinant; tags: untagged; chain copies: 6
Hfq102 (wild-type Hfq) [8] = target: T1, Hfq102 (wild-type Hfq); assay: fluorescence anisotropy; Hill 1.2; Anisotropy: 10 mM Tris-HCl pH 7.5, 50 mM NaCl, 50 mM KCl, 30 C; CTD-FITC competition: 50 mM Tris-HCl pH 7.5, 30 C; pUC19 EMSA: 40 mM Tris-HCl pH 7.5, 0.14 mM EDTA, 35 mM NH4Cl, 3.7% glycerol, 25 C (competition legend 30 C); settings: protein: recombinant; tags: untagged; chain copies: 6; label: 5' FAM on strand 1; blunt
[9] = target: T2, Hfq65 (Hfq core, CTD deleted); assay: fluorescence anisotropy; Hill 0.6; asterisked value, footnote not in material (possibly earlier work); Anisotropy: 10 mM Tris-HCl pH 7.5, 50 mM NaCl, 50 mM KCl, 30 C; CTD-FITC competition: 50 mM Tris-HCl pH 7.5, 30 C; pUC19 EMSA: 40 mM Tris-HCl pH 7.5, 0.14 mM EDTA, 35 mM NH4Cl, 3.7% glycerol, 25 C (competition legend 30 C); settings: protein: recombinant; tags: untagged; chain copies: 6; label: 5' FAM
Hfq102 (wild-type Hfq) [10] = target: T1, Hfq102 (wild-type Hfq); assay: fluorescence anisotropy; Hill 0.7; asterisked value, footnote not in material (possibly earlier work); Anisotropy: 10 mM Tris-HCl pH 7.5, 50 mM NaCl, 50 mM KCl, 30 C; CTD-FITC competition: 50 mM Tris-HCl pH 7.5, 30 C; pUC19 EMSA: 40 mM Tris-HCl pH 7.5, 0.14 mM EDTA, 35 mM NH4Cl, 3.7% glycerol, 25 C (competition legend 30 C); settings: protein: recombinant; tags: untagged; chain copies: 6; label: 5' FAM
E. coli Hfq65-K47A = target: T3, E. coli Hfq65-K47A (E. coli, UniProt P0A6X3 1-65, K47A); assay: fluorescence polarisation; 45 nM FITC-labelled peptide titrated with Hfq65 or variant (0–100 µM Hfq monomer), 50 mM Tris·HCl pH 7.5 (low salt), 30 °C, duplicate, single-site isotherm; Kd in Hfq monomer; settings: both partners purified
T3 construct: Hfq, E. coli, core residues 1-65, rim mutation K47A; Untagged; made by site-directed mutagenesis of pET21b-Hfq

E. coli Hfq65-Q35A = target: T4, E. coli Hfq65-Q35A (E. coli, UniProt P0A6X3 1-65, Q35A); assay: as above; settings: both partners purified
T4 construct: Hfq, E. coli, core residues 1-65, mutation Q35A; Untagged; made by site-directed mutagenesis of pET21b-Hfq

E. coli Hfq65-R19D = target: T5, E. coli Hfq65-R19D (E. coli, UniProt P0A6X3 1-65, R19D); assay: as above; settings: both partners purified
T5 construct: Hfq, E. coli, core residues 1-65, rim mutation R19D; Untagged; made by site-directed mutagenesis of pET21b-Hfq

E. coli Hfq65-R16A = target: T6, E. coli Hfq65-R16A (E. coli, UniProt P0A6X3 1-65, R16A); assay: as above; settings: both partners purified
T6 construct: Hfq, E. coli, core residues 1-65, rim mutation R16A; Untagged; made by site-directed mutagenesis of pET21b-Hfq

B1: Target-A18 (ssRNA)
RNA: GUGGUCAGUCGAGUGGAAAAAAAAAAAAAAAAAA
Hfq102 (wild-type Hfq) [1]
  binding result: binds

B2: minRCRB-Cy3 (structured_RNA)
RNA: CUUCCGUCCAUUUCGGACG
modifications: 5' Thiol-C6
Hfq102 (wild-type Hfq) [2]
  Kd: 13.9 ± 1.5 nM hexamer

B3: DNA1 (structured_DNA)
DNA: TATCCGTATGACGTTCCGGACTATGCGGCTAAGGGGCAATCTTTAC
[3]
  binding result: binds

B4: Bacillus subtilis Hfq: Hfq of Bacillus subtilis (protein, UniProt O31796 1-73, looked up)
RNA-binding protein Hfq: MKPINIQDQFLNQIRKENTYVTVFLLNGFQLRGQVKGFDNFTVLLESEGKQQLIYKHAISTFAPQKNVQLELE
[4]
  in vitro RNA annealing activity: inactive

B5: ChiX·chiP sRNA-mRNA pair (mixed)
RNA 1: GGGACACCGUCGCUUAAAGUGACGGCAUAAUAAUAAAAAAAUGAAAUUCCUCUUUGACGGGCCAAUAGCGAUAUUGGCCAUUUUUUU
RNA 2: GUAGUCAGCGAGACUUUUCUCAACGCUACUUUUUUAAUUUUUAUUUUUUCGCUGUUCACCUUUGGUGCAGCAAUUUAUACGUCAAAGAGGAUUAACCCAUGCGUACGUUUAGUGGC
[5]
  binding result: binds
Hfq102 (wild-type Hfq) [6]
  binding result: binds

B6: Target-U6 (ssRNA)
RNA: GUGGUCAGUCGAGUGGUUUUUU
Hfq102 (wild-type Hfq) [7]
  binding result: binds

B7: D16-FAM·R16 (dsRNA)
RNA 1: CGAAUUUUUUAAGUGC
RNA 2: GCACUUAAAAAAUUCG
Hfq102 (wild-type Hfq) [8]
  Kd: 117 ± 12 nM hexamer

B8: D16-FAM (ssRNA)
RNA: CGAAUUUUUUAAGUGC
[9]
  Kd: 20 ± 1.3 nM hexamer
Hfq102 (wild-type Hfq) [10]
  Kd: 15.5 ± 0.9 nM hexamer

B9: CTD-FITC (fluorescently-labeled E. coli Hfq CTD peptide) (peptide)
peptide: {FITC-Ahx}-NNAGGGTSSNYHHGSSAQNTSAQQDSEETE-OH
notes: Hfq, E. coli, C-terminal domain peptide; lacks residues 65-72 of the CTD region; also called CTD-FITC peptide
E. coli Hfq65-K47A
  binding result: binds
E. coli Hfq65-Q35A
  binding result: binds
E. coli Hfq65-R19D
  binding result: binds
E. coli Hfq65-R16A
  binding result: binds
